What all share (format): in vivo
One data set relates to wild-type rats. The experiment in a line: Immunohistochemistry of Naglu protein in brain tissue after intrathecal administration. As to the method:
To evaluate biodistribution of the SORT1-binding Naglu fusion proteins, an in vivo study was conducted using wild-type rats subjected to intrathecal administration of vehicle control (PBS), rhNaglu, Naglu-IGFII, Naglu-SPP, Naglu-SapDC or Naglu-tPRGN. Details of the experimental design are provide in Table 9 below. Previous experiments had shown that Naglu-IGFII but not rhNaglu penetrates into brain tissue and is targeted to lysosomes after intrathecal injection. Accordingly, rhNaglu and Naglu-IGFII were utilized in this study as negative and positive controls, respectively.
Rats were sacrificed either 4 or 24 hours post intrathecal administration of the respective fusion protein. Brain tissue samples were collected, fixed in 10% NBF and processed for paraffin embedding. 5 μm paraffin sections from each tissue assayed were subjected to immunostaining using an anti-human Naglu antibody.

The test system of data set [1] is Naglu KO mice. The experiment in a line: Naglu enzyme activity in tissues of Naglu KO mice after intrathecal administration. The following applies: 520 mg/kg brain, 24 hrs post final dose. As to the method: (§1) To evaluate the in vivo activity of Naglu-SPP and its efficacy as a therapeutic for the treatment of lysosomal storage diseases, particularly San B, Naglu-SPP was administered to Naglu KO mice via intrathecal injection. Intrathecal administration of Naglu-IGFII served as a positive control. The experimental conditions used for this assay are described in Tables 10 and 11 below.
24 hours after intrathecal administration of each respective fusion protein, Naglu KO mice were sacrificed and Naglu enzyme activity in various tissues was assayed. Total Naglu activity was evaluated using a well-established enzyme activity assay. Briefly, tissue homogenate was incubated in the presence of the Naglu specific substrate methylumbelliferyl-N-acetyl-α-D-glucosainide, and accumulation of cleavage product was measured by examining fluorescence intensity at 360/460 nm (excitation/emission) using a fluorescent plate reader. […] This increase in enzyme activity was observed over the duration of the 3 week treatment period.

In data set [2] the test system is Naglu KO mice. The experiment in a line: Heparan sulfate in brain by LC/MS. As to conditions: intrathecal, 520 mg/kg brain, 2× weekly and 3× weekly. As to the method: as §1
In a second assay, we evaluation the total amount of heparan sulfate in the brain of treated KO mice. […] To measure heparan sulfate in mouse brain tissue, a highly sensitive LC/MS method was applied (Lawrence et al, 2012, Nat Chem Biol. 2012 Jan. 8; 8(2):197-204). Briefly, total GAG from brain tissue was extracted by a DEAE column and a desalting column, and then dried and weighted. The extracted GAG was treated with heparin lyases that specifically release unique mono, di and tri saccharides of heparan sulfate, and the sample was then analyzed by LC/MS. The released saccharides were identified and quantified using commercially available saccharide standards of heparan sulfate degradation.

B1: Naglu-SPP: Fusion protein of human Naglu and SORT1 propeptide (SPP) via GAG3 linker; SEQ ID NO:17 (full-length), SEQ ID NO:22 (protein)
chain: MEAVAVAAAVGVLLLAGAGGAAGDEAREAAAVRALVARLLGPGPAADFSVSVERALAAKPGLDTYSLGGGGAARVRVRGSTGVAAAAGLHRYLRDFCGCHVAWSGSQLRLPRPLPAVPGELTEATPNRYRYYQNVCTQSYSFVWWDWARWEREIDWMALNGINLALAWSGQEAIWQRVYLALGLTQAEINEFFTGPAFLAWGRMGNLHTWDGPLPPSWHIKQLYLQHRVLDQMRSFGMTPVLPAFAGHVPEAVTRVFPQVNVTKMGSWGHFNCSYSCSFLLAPEDPIFPIIGSLFLRELIKEFGTDHIYGADTFNEMQPPSSEPSYLAAATTAVYEAMTAVDTEAVWLLQGWLFQHQPQFWGPAQIRAVLGAVPRGRLLVLDLFAESQPVYTRTASFQGQPFIWCMLHNFGGNHGLFGALEAVNGGPEAARLFPNSTMVGTGMAPEGISQNEVVYSLMAELGWRKDPVPDLAAWVTSFAARRYGVSHPDAGAAWRLLLRSVYNCSGEACRGHNRSPLVRRPSLQMNTSIWYNRSDVFEAWRLLLTSAPSLATSPAFRYDLLDLTRQAVQELVSLYYEEARSAYLSKELASLLRAGGVLAYELLPALDEVLASDSRFLLGSWLEQARAAAVSEAEADFYEQNSRYQLTLWGPEGNILDYANKQLAGLVANYYTPRWRLFLEALVDSVAQGIPFQQHQFDKNVFQLEQAFVLSKQRYPSQPRGDTVDLAKKIFLKYYPRWVAGSWGAPGGGGGAAAAAGGGGGGAPGGGGGAAAAAGGGGGGAPGGGGGAAAAAGGGGGGAPQDRLDAPPPPAAPLPRWSGPIGVSWGLRAAAAGGAFPRGGRWRR
B1: the “Naglu immunostaining in cerebral cortex / brain parenchyma” value in the data set with wild-type rats (4 and 24 hours post treatment) is given as “positive staining”. Moreover, the “Naglu immunostaining in cerebellum and hippocampal region” value in the data set with wild-type rats (24 hours post injection) is reported as “strong Naglu signal”. For the same molecule, the “Naglu activity in liver and brain tissue vs vehicle control” value with Naglu KO mice [1] is “dramatic increase”. Besides, the “total amount of heparan sulfate accumulation in brain tissue” value in the data set on Naglu KO mice [2] was “strong reduction”.

Values taken from US10603364B2, “Lysosomal targeting and uses thereof” (Shire Human Genetic Therapies, Inc., priority 2014, dated 2020).
